Results published in patent publication US20240002497A1.
Where a chain is given by its changes, count along the chain named. Names and notes keep the numbering of the source.

Tests used:
[1] = target: huNav1.5-β1-β2-β3 (human) (UniProt Q14524); assay: binding FACS, HEK Flp-In
[2] = target: huNav157chim14-β1-β2-β3 (human); assay: binding FACS, HEK Flp-In
[3] = target: huNav1.5-β1-β2-β3 (human) (UniProt Q14524); assay: FACS, CHO Flp-In, competitor 1 µM IRR00092
[4] = target: huNav1.7α + β1-β2-β3 (human) (UniProt Q15858); assay: FACS, CHO Flp-In, competitor 1 µM IRR00092
[5] = target: rhNav1.7α + β1-β2-β3 (rhesus monkey); assay: FACS, CHO Flp-In, competitor 1 µM IRR00092
[6] = target: huNav1.5-β1-β2-β3 (human) (UniProt Q14524); assay: FACS, CHO Flp-In, competitor 1 µM F010300703
[7] = target: rhNav1.7α + β1-β2-β3 (rhesus monkey); assay: FACS, CHO Flp-In, competitor 1 µM F010300703
[8] = target: huNav1.5-β1-β2-β3 (human) (UniProt Q14524); assay: binding FACS, CHO Flp-In, periplasmic extract
[9] = target: huNav1.7α + β1-β2-β3 (human) (UniProt Q15858); assay: binding FACS, CHO Flp-In, periplasmic extract
huNav1.7α + β1 (human) = huNav1.7α + β1 (human) (UniProt Q15858); assay: cell-based or functional assay
[10] = target: rhNav1.7α + β1-β2-β3 (rhesus monkey); assay: cell-based or functional assay
[11] = target: huNav1.7α + β1-β2-β3 (human) (UniProt Q15858); assay: competition FACS vs EC25 of 275B05(N93R), CHO FlpIn
[12] = target: rhNav1.7α + β1-β2-β3 (rhesus monkey); assay: as above
[13] = target: huNav1.7α + β1-β2-β3 (human) (UniProt Q15858); assay: competition FACS IC50 with 50 µM human SA against without
[14] = target: rhNav1.7α + β1-β2-β3 (rhesus monkey); assay: as above
[15] = target: huNav1.7α + β1-β2-β3 (human) (UniProt Q15858); assay: competition FACS vs EC25 of 275B05(N93R), CHO FlpIn, + 50 µM human SA
[16] = target: rhNav1.7α + β1-β2-β3 (rhesus monkey); assay: as above
[17] = target: rhNav1.7α + β1-β2-β3 (rhesus Nav1.7α co-expressed with Navβ1, Navβ2 and Navβ3) (rhesus monkey); assay: FACS, periplasmic extract, CHO Flp-In cells; SD MFI 0
[18] = target: muNav1.7α (murine Nav1.7α) (murine) (UniProt Q62205); assay: FACS, periplasmic extract, HEK Jmp-In cells; SD MFI 5
[19] = target: rhNav1.7α + β1-β2-β3 (rhesus Nav1.7α co-expressed with Navβ1, Navβ2 and Navβ3) (rhesus monkey); assay: FACS, periplasmic extract, CHO Flp-In cells; SD MFI 20
[20] = target: muNav1.7α (murine Nav1.7α) (murine) (UniProt Q62205); assay: FACS, periplasmic extract, HEK Jmp-In cells; SD MFI 61
[21] = target: rhNav1.7α + β1-β2-β3 (rhesus Nav1.7α co-expressed with Navβ1, Navβ2 and Navβ3) (rhesus monkey); assay: FACS, periplasmic extract, CHO Flp-In cells; SD MFI 2
[22] = target: muNav1.7α (murine Nav1.7α) (murine) (UniProt Q62205); assay: FACS, periplasmic extract, HEK Jmp-In cells; SD MFI 3361
[23] = target: rhNav1.7α + β1-β2-β3 (rhesus Nav1.7α co-expressed with Navβ1, Navβ2 and Navβ3) (rhesus monkey); assay: FACS, periplasmic extract, CHO Flp-In cells; SD MFI 22
[24] = target: rhNav1.7α + β1-β2-β3 (rhesus Nav1.7α co-expressed with Navβ1, Navβ2 and Navβ3) (rhesus monkey); assay: FACS, periplasmic extract, CHO Flp-In cells; SD MFI 4
[25] = target: rhNav1.7α + β1-β2-β3 (rhesus Nav1.7α co-expressed with Navβ1, Navβ2 and Navβ3) (rhesus monkey); assay: FACS, periplasmic extract, CHO Flp-In cells; SD MFI 18
[26] = target: muNav1.7α (murine Nav1.7α) (murine) (UniProt Q62205); assay: FACS, periplasmic extract, HEK Jmp-In cells; SD MFI 175
[27] = target: rhNav1.7α + β1-β2-β3 (rhesus Nav1.7α co-expressed with Navβ1, Navβ2 and Navβ3) (rhesus monkey); assay: FACS, periplasmic extract, CHO Flp-In cells; SD MFI 49
[28] = target: rhNav1.7α + β1-β2-β3 (rhesus Nav1.7α co-expressed with Navβ1, Navβ2 and Navβ3) (rhesus monkey); assay: FACS, periplasmic extract, CHO Flp-In cells; SD MFI 15
[29] = target: rhNav1.7α + β1-β2-β3 (rhesus Nav1.7α co-expressed with Navβ1, Navβ2 and Navβ3) (rhesus monkey); assay: FACS, periplasmic extract, CHO Flp-In cells; SD MFI 13
[30] = target: muNav1.7α (murine Nav1.7α) (murine) (UniProt Q62205); assay: FACS, periplasmic extract, HEK Jmp-In cells; SD MFI 24
[31] = target: rhNav1.7α + β1-β2-β3 (rhesus Nav1.7α co-expressed with Navβ1, Navβ2 and Navβ3) (rhesus monkey); assay: FACS, periplasmic extract, CHO Flp-In cells; SD MFI 33
[32] = target: muNav1.7α (murine Nav1.7α) (murine) (UniProt Q62205); assay: FACS, periplasmic extract, HEK Jmp-In cells; SD MFI 23
[33] = target: rhNav1.7α + β1-β2-β3 (rhesus Nav1.7α co-expressed with Navβ1, Navβ2 and Navβ3) (rhesus monkey); assay: FACS, periplasmic extract, CHO Flp-In cells; SD MFI 34
[34] = target: rhNav1.7α + β1-β2-β3 (rhesus Nav1.7α co-expressed with Navβ1, Navβ2 and Navβ3) (rhesus monkey); assay: FACS, periplasmic extract, CHO Flp-In cells; SD MFI 53
[35] = target: rhNav1.7α + β1-β2-β3 (rhesus Nav1.7α co-expressed with Navβ1, Navβ2 and Navβ3) (rhesus monkey); assay: FACS, periplasmic extract, CHO Flp-In cells; SD MFI 16

B1: F010300702 (bispecific antibody, V domains shown, not shown: small tags and cut ends)
VH: EVQLVESGGGLVQPGGSLRLSCAASGSIFNINSMAWYRRAPGKQRELVASSTNGGSTNYADSVKGRFTISRDNAKRVYLQMNSLTPEDTAVYYCRALLQPSIYDISRTYWGQGTLVTVSS
With B1 the MFI [1] was 946 MFI, the MFI [2] was 15400 MFI and the MFI [3] was 684 MFI. The MFI [4] was 4120 MFI, the MFI [5] was 5170 MFI and the MFI [6] was 653 MFI. It also gave an MFI [7] of 721 MFI, an MFI [8] of 662 MFI and an MFI [9] of 1570 MFI.

B2: F010301555 (bispecific antibody, part only; not given: Anti-albumin building block, part only)
chain, part: DVQLVESGGGLVQPGGSLRLSCAASGPVFNINSMAWYRRAPGKQRELVAYSTPGWDWNYADSVKGRFTISRDNAKRVYLQMNSLTPEDTAVYYCRWLLQPSIYDISRTYWGQGTLVTVSSGGGGSGGGS
Binder B2 has a Human SA ratio of QPatch IC50 (huNav1.7α + β1 (human)) of 7, a QPatch electrophysiology IC50 [M], HEK cells (huNav1.7α + β1 (human)) of 4.7e-08 M and a QPatch electrophysiology IC50 [M], HEK cells, + 10 µM human SA (huNav1.7α + β1 (human)) of 3.4e-07 M. For the same binder, the Human SA ratio of QPatch IC50 [10] was 7, the QPatch electrophysiology IC50 [M], HEK cells [10] was 3.5e-08 M and the QPatch electrophysiology IC50 [M], HEK cells, + 10 µM human SA [10] was 2.6e-07 M. For the same binder, the IC50 [11] was 140 nM, the IC50 [12] was 92 nM and the Human SA ratio [13] was 8. The Human SA ratio [14] was 10, the IC50 [15] was 1200 nM and the IC50 [16] was 880 nM.

B3: F0103464B09 N99R library variant (VHH, name in Kabat numbering)
VHH: EVQLVESGGGLVQPGGSLRLSCATTSRAFIRDVFTGWYRRVPGKERELVARIYNGGNTNYADFAKGRFSISRDNAKKMVTLRMSNLKPEDTGVYYCLFSGTIRTGREYRSGDYWGQGTLVTVSS
With B3 the Mean MFI [17] was 572 MFI and the Mean MFI [18] was 975 MFI.

B4: F0103464B09 N99Y library variant (VHH, name in Kabat numbering)
VHH: B3 VHH with R103Y
Work on B4 yielded a Mean MFI [19] of 490 MFI and a Mean MFI [20] of 936 MFI.

B5: F0103464B09 N99W library variant (VHH, name in Kabat numbering)
VHH: B3 VHH with R103W
In the case of B5, the Mean MFI [21] is reported as 530 MFI and the Mean MFI [22] is reported as 3320 MFI.

B6: F0103464B09 N99T library variant (VHH, name in Kabat numbering)
VHH: B3 VHH with R103T
B6 was tested, and the Mean MFI [23] was 839 MFI.

B7: F0103464B09 T100H library variant (VHH, name in Kabat numbering)
VHH: B3 VHH with R103N, T104H
With B7 the Mean MFI [24] was 689 MFI.

B8: F0103464B09 T100L library variant (VHH, name in Kabat numbering)
VHH: B3 VHH with R103N, T104L
For B8, the Mean MFI [25] was 531 MFI and the Mean MFI [26] was 1250 MFI.

B9: F0103464B09 T100R library variant (VHH, name in Kabat numbering)
VHH: B3 VHH with R103N, T104R
With B9 the Mean MFI [27] was 626 MFI.

B10: F0103464B09 T100K library variant (VHH, name in Kabat numbering)
VHH: B3 VHH with R103N, T104K
For B10, the Mean MFI [28] was 583 MFI.

B11: F0103464B09 T100I library variant (VHH, name in Kabat numbering)
VHH: B3 VHH with R103N, T104I
In the case of B11, the Mean MFI [29] is reported as 541 MFI and the Mean MFI [30] is reported as 1310 MFI.

B12: F0103464B09 T100E library variant (VHH, name in Kabat numbering)
VHH: B3 VHH with R103N, T104E
B12 was tested, and the Mean MFI [31] was 518 MFI and the Mean MFI [32] was 973 MFI.

B13: F0103464B09 T100M library variant (VHH, name in Kabat numbering)
VHH: B3 VHH with R103N, T104M
B13 showed a Mean MFI [33] of 585 MFI.

B14: F0103464B09 T100Q library variant (VHH, name in Kabat numbering)
VHH: B3 VHH with R103N, T104Q
B14 was tested, and the Mean MFI [34] was 650 MFI.

B15: F0103464B09 T100Y library variant (VHH, name in Kabat numbering)
VHH: B3 VHH with R103N, T104Y
Work on B15 yielded a Mean MFI [35] of 526 MFI.
